The series concerns the molecule itself. As to the kind of experiment: native MS.

B1: tau^106-144 (peptide)
peptide: Ac-AGIGDTPSLEDEAAGHVTQARMVSKSKDGTGSDDKKAKG-NH2
Regarding B1, the “stoichiometry N” value worked out at 2.

The values above are taken from publication PMC4899250 (Journal of neurochemistry, 2016).
